Source: patent US20020159989A1 (BETH ISRAEL DEACONESS MEDICAL CENTER, published 2002)

Target: T1, mouse TSP-1-TSR, expressed as a GAL4 DNA binding domain fusion (pAS2-1TSP1 type 1 construct) (mouse, UniProt P04386 1-147; P35441 377-549)
T1 construct: range 1-147;domain: TSR; also called TSR domain of TSP-1; bait
Experiment: yeast two-hybrid counter-screen (HIS3 / lacZ reporters)

T1 sequence (P04386 other isoform, or with tags, fused parts or gaps limits assumed): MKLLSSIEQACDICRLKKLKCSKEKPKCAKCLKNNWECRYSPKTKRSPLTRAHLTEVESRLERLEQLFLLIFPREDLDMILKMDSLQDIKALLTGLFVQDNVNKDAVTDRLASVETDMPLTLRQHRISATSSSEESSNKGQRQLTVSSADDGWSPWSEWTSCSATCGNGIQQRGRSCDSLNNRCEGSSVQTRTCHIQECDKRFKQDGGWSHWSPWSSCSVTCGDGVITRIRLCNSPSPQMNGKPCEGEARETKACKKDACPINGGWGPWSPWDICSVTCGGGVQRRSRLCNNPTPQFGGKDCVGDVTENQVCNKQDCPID

B1: peptide of SEQ ID NO:1, expressed as a GAL4 activation domain fusion (prey clone from the pACT2 NIH3T3 cDNA library) (peptide)
chain: ANFNQSGNIADSSLSFTFTNSSNGPNLITTQTNSQALSQPIASSNVHDNFMNNEITASKIDDGNNSKPLSPGWTDQTAYNAFGITTGMFNTTTMDDVYNYLFDDEDTPPNPKKEAPWNCCPVSCCGNCCFFRALQSCPQG
notes: range 768-881; Yeast two-hybrid prey; also called peptide of the invention
**Q.** Does B1 bind?
**A.** no binding
